Test results published in patent US20260028391A1.

What follows are binders tested against fusion glycoprotein of the RSV used in the neutralization assay of Example 1 (respiratory syncytial virus (strain not stated)) (assay: cell-based or functional assay).

RSV Neutralization - IC50 [ng/mL]	Binder
1	MPK178 (antibody, V domains shown) VH: EVQLVQSGAEVKKPGESLKISCRASGYSFVNYWIGWVRQVPGKGLEWMGFIYPFDSDTQYSPSFQGHVTISADKSINTAYLQWSSLRASDTAIYYCARFTFGIALVAGDVTGGGQAFEVWGQGTLVSVSS VL: DIVMTQSPVTLSVSPGERATLSCRASQSVAGNLAWYQQRPGQAPRLLIYAASTRATGVPARFSGSGSETEFTLTISSLQSEDFAVYYCHHYSNWPQAFGQGTRLDIK
6.6	MPK179-v4 (antibody, V domains shown) VH: QVQLVQSRAEVKKPGESLKISCRASGYSFINYWIGWVRQMPGKGLEWMGIIYPFDSDTKYSPSFEGHVTISADKSINTAYVQWSSLKASDTAIYYCARFTFGIALVAGDVGGEGHAFDIWGQGTLVTVSS VL: DIVMTQSPSSLSASVGDRVTITCRASQTISTYLNWYQQKPGKAPKLLIYAASRLQSGVPSRFSGSGSGTDFTLTISSLQPEDFATYFCQQSYNAPPFTFGPGTKVDIR
1.5	MPK180 (antibody, V domains shown) VH: QVQLVQSGAEVKKPGESLRISCKASGYSFASYWIGWVRQKPGKGPEWMGIIFPNDSDTEYSPSFEGQVSISADKSTSTVHLQWGSLKASDTAVYYCGRMYYLGALETWGQGTMVTVSS VL: AIRMTQSPSSLSASVGDRVTIVCQASHDISNFLNWYQQRPGQAPKLLIYDASFLETGVPSRFSGSGSGTYFTLTISSLQPEDFATYYCQRYDNRFFTFGPGTKVDIK
4.2	MPK176 (antibody, V domains shown) VH: QVQLVQSGAEVKKPGASVRVSCKASGYTLTAYGISWVRQAPGQGLEWMGWISPKHGNTHYAQRFQGRVTMTTDTSTSTAYMELRSLRPDDTAVYFCAREGVDIMAVPWYFDYWGQGTLVAVSS VL: SYELTQPPSVSVAPGQTARISCGGNNIGSKSVHWYQQKPGQAPVVVVYDDSDRPSGIPERFSGSNSGNTATLTISGVEAGDEADYFCQVWDSATDHWVFGGGTKLTVL
1.2	MPK186 (antibody, V domains shown) VH: QVQLVQSGAEVKKPGESLKISCQGSGYSFINYWIGWVRQMPGKGLEWMGIIYPFDSETKYSPSFQGHVTISADKSINTAYVQWSSLKASDTAMYYCARFTFGIAVVTDDVYGEAQGFDIWGQGTMVTVSS VL: DIVMTQTPATLSVSPGERATLSCRASQSVDGNLAWYQQRPGQAPRLLIYGASTRATGVPARFSGSGSETEFTLTISSLQSEDFAVYYCQHYSNWPQAFGQGTRLDIK
1	MPK188 (antibody, V domains shown) VH: EVQLVQSGAEVKKPGESLKISCQASGYSFINYWIGWVRQMPGKGLEWMGIIYPFDSDTNYSPSFQGLVTISADKSINTAYLQWRSLKASDTAMYYCARFTFGIALVAGDVNGEGHAFDIWGQGTVVTVSS VL: EIVMTQSPATLSVSPGESATLSCRASQGVAGNLAWYQQRPGQAPRLLIYGTSTRATGVPARFSGSGSETEFTLTISSLQSEDFAVYYCHHYSNWPQAFGQGTRLDIK
9.1	MPK187 (antibody, V domains shown) VH: QVQLVQSGAEVKKPGASVKVSCKTSGYYFNDYFIHWVRHAPGQGLEWMGWVNPLSGATVYAQKFQGWVTLTRDTSINTAYMELTRLTSNDTAMYYCATGALFWTGPTYWGQGTPVTVSA VL: EIVLTQSPATLSLFPGERATLSCRTSQFVSNNLAWYQQRPGQAPRLLIYDASSRASGTPGRFSASGSGTDFTLTVSSLETEDFAIYYCQHRSNWPPGITFGPGTRVDIR
1.2	MPK189 (antibody, V domains shown) VH: QVQLVQSGAEVKKPGESLKISCKGSGYSFINYWIGWVRQMPGKGLEWMGIIYPFDSDTKYSPSFQGHVTISADKSINTAYVQWSSLKASDTAMYYCARFTFGIAVVTDDVSDEGHAFDIWGQGTMVTVSS VL: EIVMMQSPATLSVSPGERATLSCRASQSVAGNLAWYQQRPGQAPRLLIYGASTRATGVPARFSGSGSETEFTLTISSLQSEDFAVYYCQQYSNWPQAFGQGTRLDIK
14.7	MPK197 (antibody, V domains shown) VH: QVQLVQSGAEVKKPGASVKVSCKTSGYYFNDYFIHWVRHAPGQGLEWMGWVNPLSGATVYAQKFQGWVTLTRDTSINTAYMELTRLTSNDTALYYCATGALFWTGPTYWGQGTPVTVSA VL: EIVMMQSPATLSLSPGERATLSCRASQSISNNLAWYQQKTGQAPRLLIYDASSRASGTPGRFSASGSGTDFTLTVSSLETEDFAIYYCQHRSNWPPGITFGPGTRVDVR
2	MPK203 (antibody, V domains shown) VH: EVQLVQSGPQVKKPGAAVKVSCKASGFTFTDTTVNWVRQTRGQRLEWMGWIAVGSGTTNYAQKFRDRVTISRDTSTDTAYMELGGLTHDDTAVYYCTTEASRTWFVQTSPFVGFDPWGQGTLVTVSS VL: EIVLTQSPGTLSLSPGERATLSCRASQSVSSSYFAWYQQKPGQTPRVLIYGASNRAPDIPDRFSGSGSGTDFILTISRLEPEDFAIYYCQHYGSSPTFGQGTKVEIK
1.2	MPK198 (antibody, V domains shown) VH: EVQLVQSGAEVKKPGESLKISCKGSGYSFINYWIGWVRQMPGKGLEWMGIIYPFDSDTKYSPSFQGHVTISADKSINTAYVQWSSLKASDTAMYYCARFTFGIAVVTDDVSGEGQAFDIWGQGTMVTVSS VL: EIVMMQSPATLSVSPGERATLSCRASQSVAGNLAWYQQRPGQAPRLLIYGASTRATGVPARFSGSGSETEFTLTISSLQSEDFAVYYCQQYSNWPQAFGQGTRLDIK
2.6	MPK194-v2 (antibody, V domains shown) VH: QVQLVESGGGVVQPGRSLRLSCVASGFTFSNYPLHWVRQAPGKGLQWVAVISYDGSENYYADSVKGRFTISRDNSKSTLYLQMNSLRPEDTAIYYCARSKVAGGSYYFDYWGQGTLVPVSS VL: SYELTQPPSVSVAPGQAARVSCGGNNIGSQYVQWYQQKPGQAPVLVIYDDDDRPSGIPERFSGSNSGSTATLTISRVEAGDEADYYCQVWDKSNHVVVFGGGTKLTVL

Continued, binder first:

Binder	RSV Neutralization - IC50 [ng/mL]
MPK161-v1 (antibody, V domains shown) VH: EVQLVQSGVEAKKPGESLKISCRASGYSFVNFWIGWVRQVPGKGLEWMGFIYPFDSDTKYGPSFEGHVIISADKSTNTAYLEWRSLRASDSAMYYCARFTFGIALVAGDVTGGGQAFEVWGQGTLVSVSS VL: AIWMTQSPSTLSASVGDRVTVTCRASLSIGTWLAWYQHKPGKAPKFLIYKASSLESGVPSRFSGSGSGTEFTLTISSLQPDDFATYYCQQYDSYPFTFGGGTKVEIK	2.8
MPK161-v2 (antibody, V domains shown) VH: EVQLVQSGVEAKKPGESLKISCRASGYSFVNFWIGWVRQVPGKGLEWMGFIYPFDSDTKYGPSFEGHVIISADKSTNTAYLEWRSLRASDSAMYYCARFTFGIALVAGDVTGGGQAFEVWGQGTLVSVSS VL: EIVMMQSPATLSVSPGDRATLSCRASQSVAGNLAWYQQRPGQAPRLLIYAASTRATGVPARFSGSGSETEFTLTISSLQSEDFAVYYCHHYSNWPQAFGQGTRLDIK	1.1
MPK170 (antibody, V domains shown) VH: QVQLVQSGAEVKKPGESLKISCKGSGYSFINYWIGWVRQMPGKGLEWMGIIYPFDSDTKYSPSFQGHVTISADKSINTAYVQWSSLKASDTAIYYCARFTFGIAVSTDDVSGEGQAFDLWGQGTRVTVSS VL: EIVMMQSPATLSVSPGERATLSCRASQSVAGNLAWYQQRPGQAPRLLIYAGSARATGVPARFSGSGSETEFTLTISSLQSEDFAVYYCHHYSNWPQAFGQGTRLDIK	1.1
MPK163 (antibody, V domains shown) VH: EVQLVQSGAEVKKPGESLKMSCKTSGYSFRSYWIAWVRQRPGKGLEWMGIIWPGDSDVRYGPSFQGQVTISADRSTNTAYLQWSSLKASDTAIYWCARQNYDFWSGHSLGTGADYYYGMDVWGQGTTVTVSS VL: SSELTQPPSASGTPGQRVTISCSGSSSNIGRNIVHWYQHVPGTAPKLLIYNNDERPSGVPDRFSGSKSGTSASLAISGLQSEDEADYYCTVWDDSLNGGVFGGGTKVTVL	1.4
MPK165 (antibody, V domains shown) VH: EVQLVQSGAEVKKPGESLKISCRASGYSFNNYWVGWVRQVPGKGLEWMGFIYPFDSDTKYSPSFEGHVTISADKSIDTAYLQWSSLRSSDTAIYYCARFTFGIALVAGDVTGGGQAFEVWGQGTLVTVSS VL: EIVMTQSPATLSVSPGERATLSCRASQSVAGKLAWYQQRPGQAPRLIIYAASTRAAGVPARFSGSGSETEFTLTISSLQSEDFAVYYCHHYSNWPQAFGQGTRLDIK	1
MPK171-v2 (antibody, V domains shown) VH: QVQLVQSGAEVKKPGESLKISCKGSGYSFINYWIGWVRQMPGKGLEWMGIIYPFDSDTKYSPSFQGHVTISADKSINTAYVQWSSLKASDTAMYYCARFTFGIAVVTDDVSGEGHAFDIWGQGTMVTVSS VL: QSVLTQSPATLSVSPGERATLSCRASQSVAGNLAWYQQRPGQAPRLLIYGASTRATGVPARFSGSGSETEFTLTISSLQSEDFAVYYCQQYSNWPQAFGQGTRLDIK	1
MPK173 (antibody, V domains shown) VH: QVQLVQSGAEVRKPGASVKVSCRASGYTFSNFGITWVRQAPGQGLEWMGWISAYNGNTKSAQKFQDRVTMTTDTTTSTAYMELRSLRSDDTAVYYCARDTPSSDGAALLDYWGQGTLVTVSS VL: DIVMTQTPLSLPVTLGQPASISCRSSQSLVYSDGNTYLSWFQQRPGQSPRRLIYKVSNRDSGVPDRFSGSGSGTYFTLKINRVEAEDVGVYYCMQSKYWLTFGQGTKVEIK	10.2
MPK168 (antibody, V domains shown) VH: EVQLVQSGAEVKKPGESLKISCQVSGYSFVNYWIGWVRQVPGKGLEWMGLIYPFDSDTQYSPSFQGHVTISADTSITTAYLQWSSLQASDTATYYCARFTFGLALVTAGLTDDGQAFDFWGQGTVVTVSS VL: EIVMMQSPATLSVSPGERATLSCRATESVAGKLAWYQQRPGQTPRLLIYGASARATGVPARFSGSGSETEFTLTISSLQSEDFAVYYCQQYSTWPHAFGQGTRLDIK	1.3
MPK175 (antibody, V domains shown) VH: QVQLVQSGAEVKKPGESLKISCQASGYSFINYWIGWVRQKPGKGLEWMGIIYPFDSETKYSPSFQGHVTISADRFTNTAYVQWTSLKASDTAIYYCARFTFGLAVVAGGLSDDGQAFDIWGQGTRVTVSS VL: EIVLTQSPATLSVSPGERATLSCRASQSVAANLAWYQQRPGQTPRLLIYGASTRATGVPARFSGSGSETEFTLTISSLQPEDFAVYYCHHYSDWPQAFGQGTRLDIK	1.6
